Results reported in patent publication US20220154296A1, “USE OF ANTI-PD-1 ANTIBODY IN PREPARATION OF MEDICAMENT FOR TREATING SOLID TUMORS” (Shanghai Junshi Biosciences Co., Ltd., priority 2019, published 2022).

[1] = ESCC patients, 3 mg/kg Q2W, n = 59

Description: The anti-PD-1 antibody dose groups for this study: 3 mg/kg dose group at first. After enrollment, subjects will receive treatment every 2 weeks (Q2W) for a 4-week cycle, until disease progression, onset of intolerable toxicity, withdrawal of consent by the subject, no further benefit at the discretion of the investigator, or death.
The planned dose was 3 mg/kg, Q2W.

Substance: toripalimab: humanized IgG4 anti-PD-1 mAb comprising light and heavy chain amino acid sequences set forth in SEQ ID NOs: 9 and 10 (WO2014206107)
- Common TRAE: ALT elevation (59 ESCC patients): 11.9%
- Common TRAE: AST elevation (59 ESCC patients): 13.6%
- Common TRAE: anemia (59 ESCC patients): 18.6%
- Common TRAE: constipation (59 ESCC patients): 10.2%
- Common TRAE: cough (59 ESCC patients): 16.9%
- Common TRAE: fatigue (59 ESCC patients): 11.9%
- Common TRAE: fever (59 ESCC patients): 16.9%
- Common TRAE: hypothyroidism (59 ESCC patients): 13.6%
- Common TRAE: leukopenia (59 ESCC patients): 15.3%
- Common TRAE: loss of appetite (59 ESCC patients): 18.6%
- Common TRAE: low hemoglobin counts (59 ESCC patients): 10.2%
- Common TRAE: nausea (59 ESCC patients): 11.9%
- Common TRAE: total bilirubin increase (59 ESCC patients): 10.2%
- Common TRAE: weight loss (59 ESCC patients): 18.6%
- Grade 3 TRAE: anemia (59 ESCC patients): 2 cases
- Grade 3 TRAE: anorexia (59 ESCC patients): 1 case
- Grade 3 TRAE: dysphagia (59 ESCC patients): 1 case
- Grade 3 TRAE: esophageal stenosis (59 ESCC patients): 1 case
- Grade 3 TRAE: fatigue (59 ESCC patients): 1 case
- Grade 3 TRAE: hydrocardia (59 ESCC patients): 1 case
- Grade 3 TRAE: hypercalcemia (59 ESCC patients): 1 case
- Grade 3 TRAE: hypertension (59 ESCC patients): 1 case
- Grade 3 TRAE: hyponatremia (59 ESCC patients): 2 cases
- Grade 3 TRAE: leukopenia (59 ESCC patients): 1 case
- Grade 3 TRAE: neck infection (59 ESCC patients): 1 case
- Grade 3 TRAE: upper respiratory infection (59 ESCC patients): 1 case
- Grade 4 TRAE: hyperuricemia (59 ESCC patients): 1 case
- Grade 4 TRAE: paraplegia (59 ESCC patients): 1 case
- Patients permanently discontinued due to TRAE (59 ESCC patients): 23.7%
- Patients with Grade 3 and higher TRAEs (59 ESCC patients): 32.2%
- Patients with Grade 4 TRAEs (59 ESCC patients): 3.4%
- Patients with dose discontinuation due to TRAE (59 ESCC patients): 10.2%
- Patients with grade 3 TRAEs (59 ESCC patients): 18.6%
- Safety in ESCC patients (conclusion) (59 ESCC patients): controlled safety
- Treatment-related death: cachexia (59 ESCC patients): 1 case
- Treatment-related death: pneumonia (59 ESCC patients): 2 cases
- Treatment-related death: unknown etiology (59 ESCC patients): 3 cases
- Patients with treatment-related adverse events (TRAEs) (59 ESCC patients, as of Dec. 31, 2018): 94.9%
- Treatment-related deaths (59 ESCC patients, likely unrelated to the treatment): six
- ALT elevation, Level 1 [1]: 7 (11.9) n (%)
- ALT elevation, Level 2 [1]: 0 n (%)
- ALT elevation, Level 3 [1]: 0 n (%)
- ALT elevation, Level 4 [1]: 0 n (%)
- ALT elevation, Level 5 [1]: 0 n (%)
- ALT elevation, Total [1]: 7 (11.9) n (%)
- AST elevation, Level 1 [1]: 8 (13.6) n (%)
- AST elevation, Level 2 [1]: 0 n (%)
- AST elevation, Level 3 [1]: 0 n (%)
- AST elevation, Level 4 [1]: 0 n (%)
- AST elevation, Level 5 [1]: 0 n (%)
- AST elevation, Total [1]: 8 (13.6) n (%)
- Anemia, Level 1 [1]: 6 (10.2) n (%)
- Anemia, Level 2 [1]: 2 (3.4) n (%)
- Anemia, Level 3 [1]: 3 (5.1) n (%)
- Anemia, Level 4 [1]: 0 n (%)
- Anemia, Level 5 [1]: 0 n (%)
- Anemia, Total [1]: 11 (18.6) n (%)
- Constipation, Level 1 [1]: 5 (8.5) n (%)
- Constipation, Level 2 [1]: 1 (1.7) n (%)
- Constipation, Level 3 [1]: 0 n (%)
- Constipation, Level 4 [1]: 0 n (%)
- Constipation, Level 5 [1]: 0 n (%)
- Constipation, Total [1]: 6 (10.2) n (%)
- Cough, Level 1 [1]: 6 (10.2) n (%)
- Cough, Level 2 [1]: 4 (6.8) n (%)
- Cough, Level 3 [1]: 0 n (%)
- Cough, Level 4 [1]: 0 n (%)
- Cough, Level 5 [1]: 0 n (%)
- Cough, Total [1]: 10 (16.9) n (%)
- Fatigue, Level 1 [1]: 6 (10.2) n (%)
- Fatigue, Level 2 [1]: 1 (1.7) n (%)
- Fatigue, Level 3 [1]: 0 n (%)
- Fatigue, Level 4 [1]: 0 n (%)
- Fatigue, Level 5 [1]: 0 n (%)
- Fatigue, Total [1]: 7 (11.9) n (%)
- Fever, Level 1 [1]: 8 (13.3) n (%)
- Fever, Level 2 [1]: 2 (3.4) n (%)
- Fever, Level 3 [1]: 0 n (%)
- Fever, Level 4 [1]: 0 n (%)
- Fever, Level 5 [1]: 0 n (%)
- Fever, Total [1]: 10 (16.9) n (%)
- Hypothyroidism, Level 1 [1]: 5 (8.5) n (%)
- Hypothyroidism, Level 2 [1]: 3 (5.1) n (%)
- Hypothyroidism, Level 3 [1]: 0 n (%)
- Hypothyroidism, Level 4 [1]: 0 n (%)
- Hypothyroidism, Level 5 [1]: 0 n (%)
- Hypothyroidism, Total [1]: 8 (13.6) n (%)
- Leukopenia, Level 1 [1]: 6 (10.2) n (%)
- Leukopenia, Level 2 [1]: 3 (5.1) n (%)
- Leukopenia, Level 3 [1]: 0 n (%)
- Leukopenia, Level 4 [1]: 0 n (%)
- Leukopenia, Level 5 [1]: 0 n (%)
- Leukopenia, Total [1]: 9 (15.3) n (%)
- Loss of appetite, Level 1 [1]: 6 (10.2) n (%)
- Loss of appetite, Level 2 [1]: 4 (6.8) n (%)
- Loss of appetite, Level 3 [1]: 1 (1.7) n (%)
- Loss of appetite, Level 4 [1]: 0 n (%)
- Loss of appetite, Level 5 [1]: 0 n (%)
- Loss of appetite, Total [1]: 11 (18.6) n (%)
- Low hemoglobin counts, Level 1 [1]: 3 (5.1) n (%)
- Low hemoglobin counts, Level 2 [1]: 3 (5.1) n (%)
- Low hemoglobin counts, Level 3 [1]: 0 n (%)
- Low hemoglobin counts, Level 4 [1]: 0 n (%)
- Low hemoglobin counts, Level 5 [1]: 0 n (%)
- Low hemoglobin counts, Total [1]: 6 (10.2) n (%)
- Nausea, Level 1 [1]: 5 (8.5) n (%)
- Nausea, Level 2 [1]: 2 (3.4) n (%)
- Nausea, Level 3 [1]: 0 n (%)
- Nausea, Level 4 [1]: 0 n (%)
- Nausea, Level 5 [1]: 0 n (%)
- Nausea, Total [1]: 7 (11.9) n (%)
- Total bilirubin increase, Level 1 [1]: 6 (10.2) n (%)
- Total bilirubin increase, Level 2 [1]: 0 n (%)
- Total bilirubin increase, Level 3 [1]: 0 n (%)
- Total bilirubin increase, Level 4 [1]: 0 n (%)
- Total bilirubin increase, Level 5 [1]: 0 n (%)
- Total bilirubin increase, Total [1]: 6 (10.2) n (%)
- Treatment-related adverse events, Level 1 [1]: 13 (22.0) n (%)
- Treatment-related adverse events, Level 2 [1]: 24 (40.7) n (%)
- Treatment-related adverse events, Level 3 [1]: 11 (18.6) n (%)
- Treatment-related adverse events, Level 4 [1]: 2 (3.4) n (%)
- Treatment-related adverse events, Level 5 [1]: 6 (10.2) n (%)
- Treatment-related adverse events, Total [1]: 56 (94.9) n (%)
- Weight loss, Level 1 [1]: 8 (13.6) n (%)
- Weight loss, Level 2 [1]: 3 (5.1) n (%)
- Weight loss, Level 3 [1]: 0 n (%)
- Weight loss, Level 4 [1]: 0 n (%)
- Weight loss, Level 5 [1]: 0 n (%)
- Weight loss, Total [1]: 11 (18.6) n (%)
